Data taken from patent US20210388087A1 (Chugai, published 2021).
Substitutions are numbered along the chain they refer to. Names and notes keep the numbering of the source. Values belong to the binder of their own block, whether it stands above or below them.

Biological target: T1, Human CD3eg linker (human)
T1 construct: Single chain: epsilon and gamma subunits of human CD3 joined by a 29-mer linker, Flag-tag at the C-terminus; also called recombinant human CD3
T1 chain: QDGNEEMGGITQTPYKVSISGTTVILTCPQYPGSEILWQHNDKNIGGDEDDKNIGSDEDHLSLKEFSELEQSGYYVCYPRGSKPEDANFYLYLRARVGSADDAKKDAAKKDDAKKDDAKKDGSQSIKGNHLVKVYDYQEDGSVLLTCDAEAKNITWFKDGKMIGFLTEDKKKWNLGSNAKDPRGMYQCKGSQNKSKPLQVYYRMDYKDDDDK
Experiment: Biacore SPR, vs template H183/L072

fold change of affinity: 0.6 fold
B1: H183/L072 VH M34I (antibody, name in Kabat numbering, V domains shown)
VH: QVQLVESGGGLVQPGRSLRLSCAASGFTFSNAWIHWVRQAPGKGLEWVAQIKDKGNAYAAYYAPSVKGRFTISRDDSKNSIYLQMNSLKTEDTAVYYCHYVHYASASTVLPAFGVDAWGQGTTVTVSS
VL: DIVMTQSPLSLPVTPGEPASISCQASQELVHMNRNTYLHWYQQKPGQAPRLLIYKVSNRFPGVPDRFSGSGSGTDFTLKISRVEAEDVGVYYCAQGTSVPFTFGQGTKLEIK

fold change of affinity: 0 fold
B2: H183/L072 VH N31E (antibody, name in Kabat numbering, V domains shown)
VH: B1 VH with N31E, I34M
VL: B1 VL

fold change of affinity: 0 fold
B3: H183/L072 VH M34Y (antibody, name in Kabat numbering, V domains shown)
VH: B1 VH with I34Y
VL: B1 VL

fold change of affinity: 0.1 fold
B4: H183/L072 VH N31P (antibody, name in Kabat numbering, V domains shown)
VH: B1 VH with N31P, I34M
VL: B1 VL

fold change of affinity: 0 fold
B5: H183/L072 VH M34N (antibody, name in Kabat numbering, V domains shown)
VH: B1 VH with I34N
VL: B1 VL

fold change of affinity: 0.5 fold
B6: H183/L072 VH N31I (antibody, name in Kabat numbering, V domains shown)
VH: B1 VH with N31I, I34M
VL: B1 VL

fold change of affinity: 0.5 fold
B7: H183/L072 VH N53E (antibody, name in Kabat numbering, V domains shown)
VH: B1 VH with I34M, N56E
VL: B1 VL

fold change of affinity: 0.2 fold
B8: H183/L072 VH N31L (antibody, name in Kabat numbering, V domains shown)
VH: B1 VH with N31L, I34M
VL: B1 VL

fold change of affinity: 0.2 fold
B9: H183/L072 VH N31M (antibody, name in Kabat numbering, V domains shown)
VH: B1 VH with N31M, I34M
VL: B1 VL

fold change of affinity: 0.4 fold
B10: H183/L072 VH N31A (antibody, name in Kabat numbering, V domains shown)
VH: B1 VH with N31A, I34M
VL: B1 VL

fold change of affinity: 0 fold
B11: H183/L072 VH M34K (antibody, name in Kabat numbering, V domains shown)
VH: B1 VH with I34K
VL: B1 VL

fold change of affinity: 0.7 fold
B12: H183/L072 VH N53A (antibody, name in Kabat numbering, V domains shown)
VH: B1 VH with I34M, N56A
VL: B1 VL

fold change of affinity: 0.5 fold
B13: H183/L072 VH N31R (antibody, name in Kabat numbering, V domains shown)
VH: B1 VH with N31R, I34M
VL: B1 VL

fold change of affinity: 0 fold
B14: H183/L072 VH M34S (antibody, name in Kabat numbering, V domains shown)
VH: B1 VH with I34S
VL: B1 VL

fold change of affinity: 0 fold
B15: H183/L072 VH M34Q (antibody, name in Kabat numbering, V domains shown)
VH: B1 VH with I34Q
VL: B1 VL

fold change of affinity: 0.4 fold
B16: H183/L072 VH N31W (antibody, name in Kabat numbering, V domains shown)
VH: B1 VH with N31W, I34M
VL: B1 VL

fold change of affinity: 0.5 fold
B17: H183/L072 VH N31F (antibody, name in Kabat numbering, V domains shown)
VH: B1 VH with N31F, I34M
VL: B1 VL

fold change of affinity: 0.7 fold
B18: H183/L072 VH M34L (antibody, name in Kabat numbering, V domains shown)
VH: B1 VH with I34L
VL: B1 VL

fold change of affinity: 0.6 fold
B19: H183/L072 VH N31T (antibody, name in Kabat numbering, V domains shown)
VH: B1 VH with N31T, I34M
VL: B1 VL

fold change of affinity: 0 fold
B20: H183/L072 VH M34T (antibody, name in Kabat numbering, V domains shown)
VH: B1 VH with I34T
VL: B1 VL

fold change of affinity: 0.3 fold
B21: H183/L072 VH N31G (antibody, name in Kabat numbering, V domains shown)
VH: B1 VH with N31G, I34M
VL: B1 VL

fold change of affinity: 0.3 fold
B22: H183/L072 VH N31H (antibody, name in Kabat numbering, V domains shown)
VH: B1 VH with N31H, I34M
VL: B1 VL

fold change of affinity: 0.4 fold
B23: H183/L072 VH N31K (antibody, name in Kabat numbering, V domains shown)
VH: B1 VH with N31K, I34M
VL: B1 VL

fold change of affinity: 0.2 fold
B24: H183/L072 VH N31Q (antibody, name in Kabat numbering, V domains shown)
VH: B1 VH with N31Q, I34M
VL: B1 VL

fold change of affinity: 0.5 fold
B25: H183/L072 VH N31S (antibody, name in Kabat numbering, V domains shown)
VH: B1 VH with N31S, I34M
VL: B1 VL

fold change of affinity: 0 fold
B26: H183/L072 VH M34P (antibody, name in Kabat numbering, V domains shown)
VH: B1 VH with I34P
VL: B1 VL

fold change of affinity: 0 fold
B27: H183/L072 VH M34W (antibody, name in Kabat numbering, V domains shown)
VH: B1 VH with I34W
VL: B1 VL

fold change of affinity: 0.1 fold
B28: H183/L072 VH M34V (antibody, name in Kabat numbering, V domains shown)
VH: B1 VH with I34V
VL: B1 VL

fold change of affinity: 0.4 fold
B29: H183/L072 VH N53D (antibody, name in Kabat numbering, V domains shown)
VH: B1 VH with I34M, N56D
VL: B1 VL

fold change of affinity: 0.5 fold
B30: H183/L072 VH N31V (antibody, name in Kabat numbering, V domains shown)
VH: B1 VH with N31V, I34M
VL: B1 VL

fold change of affinity: 0.1 fold
B31: H183/L072 VH N31D (antibody, name in Kabat numbering, V domains shown)
VH: B1 VH with N31D, I34M
VL: B1 VL

fold change of affinity: 0.3 fold
B32: H183/L072 VH N31Y (antibody, name in Kabat numbering, V domains shown)
VH: B1 VH with N31Y, I34M
VL: B1 VL

fold change of affinity: 0 fold
B33: H183/L072 VH M34R (antibody, name in Kabat numbering, V domains shown)
VH: B1 VH with I34R
VL: B1 VL
